Measurements from publication PMC10934500, “Exploring the Anti-Diabetic Potential of Quercetagitrin through Dual Inhibition of PTPN6 and PTPN9” (Nutrients, 2024).

Test system: Cc1cc(=O)oc2c(F)c(OP(=O)(O)O)c(F)cc12
Experiment: Michaelis-Menten kinetics (KM) with purified enzyme, fluorescence
Format: biochemical, Homo sapiens

With PTPN6 (Homo sapiens) the Km was 187.5 µM, the Vmax was 10.8 µM/min and the kcat was 30 s⁻¹. The kcat/Km was 162000 M⁻¹ s⁻¹.
